Results reported in patent US20020156112A1, “Endostatin-like angiogenesis inhibition” (priority 2000, published 2002).

What was measured:
[1] = test system: resin-immobilized RGD peptide; assay: NTA-Ni agarose resin binding verified by SDS-PAGE (Example 7); settings: imidazole elution
Description: (§1) 400 ul phosphate buffer (pH 7.4), 200 ul either RGD-bound colloids or GST-bound colloids, and either 100 ul endostatin or angiostatin, 50 ul endostatin or angiostatin/50 ul phosphate buffer, or 100 ul phosphate buffer (as a negative control) were added to each well of a crystallization dish. Color change was monitored over time at room temperature. […] The color change was more pronounced in the well that contained 100 ul endostatin than in the well that contained 50 ul endostatin/50 ul phosphate buffer. […] The results were verified by gel electrophoresis. The RGD peptide and histidine-tagged GST were bound to a small amount of NTA-Ni agarose resin at saturating concentration. Endostatin was incubated with the resin and allowed to bind to the protein on the resin. The histidine-tagged proteins were then eluted using imidazole, and the samples were analyzed by SDS-PAGE.

[2] = test system: His-tagged GRGDS motif peptide; assay: NTA-Ni agarose pull-down with SDS PAGE of eluate and flow through (Example 2); type: binding; settings: 0.1 mg/mL protein; imidazole (250 mM) elution
His-tagged GRGDS motif peptide, sequence (as listed by the source): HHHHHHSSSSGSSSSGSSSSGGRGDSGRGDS
Description: 200 μL NTA-Ni agarose (Qiagen) were washed 2× with 100 μL ddH20, then with wash buffer A, containing 50 mM NaH2PO4, 300 mM NaCl, and 10 mM imidazole at pH 8.0.
A synthetic peptide, was dissolved in DMSO then diluted in phosphate buffer to a final concentration of 1 mM. 100 μL of this peptide solution was incubated with the NTA-Ni resin for 20 minutes at room temperature to allow binding of the histidine-tagged peptide to the NTA-Ni resin. The resin was then pelleted and the supernatant was removed. The resin was washed in buffer A. The peptide bound resin was then divided into two aliquots. A first aliquot was mixed with 100 μL human recombinant endostatin (0.1 mg/mL in 10 mM sodium phosphate buffer, 100 mM sodium chloride, pH 7.4, diluted from stock endostatin, Calbiochem 324746). A second aliquot was mixed with 100 μL human angiostatin, Calbiochem 176700(0.1 mg/mL in 10 mM sodium phosphate buffer, 100 mM sodium chloride, pH 7.4. The beads and angiogenesis inhibitors were incubated on ice 15-20 minutes to allow binding to the bead-immobilized peptide. The resin was then pelleted. The supernatants were removed and reserved for analysis by SDS PAGE (flow through). The beads were then washed 2× with 10 mM sodium phosphate buffer. The histidine-tagged peptides and any immobilized drug were eluted by the addition of 4 aliquots of an imidazole (250 mM) wash.

GST-bound colloids = assay: Colloid/colloid linkage colour-change assay on NTA colloids, negative control protein (Example 7); type: binding; settings: 100 ul or 50 ul protein; room temperature
Description: (§2) 600 microliters colloids, derivatized with a self-assembled monolayer that presents nitrilo tri-acetic acid, NTA (for the capture of histidine-tagged proteins), was mixed with 60 microliters of 500 micromolar histidine-tagged RGD-motif-containing peptide. 600 microliters of a second set of NTA-Ni presenting colloids was mixed with 60 ul of a 500 uM solution of histidine-tagged GST, an irrelevant protein, as a negative control. Colloids were spun down and resuspended in phosphate buffer to remove residual unbound protein or peptide. Endostatin and Angiostatin, two proteins implicated in angiogenesis and suspected of binding to regions of vitronectin, such as the RGD peptide, were prepared by dialysis into phosphate-buffered saline solution and then 1:10 dilution into PBS from a stock concentration of 1 mg/mL.
(§3) 400 ul phosphate buffer (pH 7.4), 200 ul either RGD-bound colloids or GST-bound colloids, and either 100 ul endostatin or angiostatin, 50 ul endostatin or angiostatin/50 ul phosphate buffer, or 100 ul phosphate buffer (as a negative control) were added to each well of a crystallization dish. Color change was monitored over time at room temperature. […] The histidine-tagged proteins were then eluted using imidazole, and the samples were analyzed by SDS-PAGE.

irrelevant FLR-peptide = target: T1, irrelevant FLR-peptide (Homo sapiens, UniProt P15941, R1131P); assay: Gold colloid colour-change binding assay, control colloids (Example 6); settings: endostatin 0.1 mg/mL; wells A3, A4
T1 construct: ID No. 2: FLR peptide
T1 sequence (P15941 with tags, fused parts or gaps R1131P): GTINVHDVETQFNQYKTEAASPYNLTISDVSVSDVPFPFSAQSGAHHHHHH
Description: (§4) 40 μM NTA gold colloids were prepared which presented the His-tagged RGD peptide (Sequence ID No.1, see Table 1). These colloids were mixed with endostatin (0.1 mg /mL) and turned blue, indicating binding of endostatin to the GRGDS peptide (A1, A2, FIG. 6). Control colloids presenting an irrelevant FLR-peptide (Sequence ID #2, see table 1) remained pink (wells A3, A4). At the highest concentration of vitronectin (0.1 mg /ml), the endostatin—GRGDS interaction is disrupted, and the well remains pink (B1). At lower concentrations of vitronectin, the endostatin—GRDS interaction is not affected and the wells turn blue (B2-B5).

[3] = test system: RGD-peptide-bound colloids; assay: Colloid/colloid linkage colour-change assay on NTA colloids (Example 7); type: binding; settings: 100 ul or 50 ul protein; room temperature, after approximately 15 minutes
Description: as §2, §3

resin-immobilized GST = assay: NTA-Ni agarose resin binding verified by SDS-PAGE, control (Example 7); settings: imidazole elution
Description: as §1

GRGDS peptide = assay: Gold colloid colour-change binding assay, RGD peptide colloids (Example 6); settings: endostatin 0.1 mg/mL; wells A1, A2
GRGDS peptide, sequence (as listed by the source): as the sequence (as listed by the source) above
Description: as §4

resin-immobilized RGD peptide, sequence (as listed by the source): as the sequence (as listed by the source) above

B1: endostatin: human recombinant endostatin (Calbiochem 324746), known angiogenesis inhibitor protein, a dimer in its functional form (protein, UniProt P39060 1572-1754, looked up)
Endostatin: HSHRDFQPVLHLVALNSPLSGGMRGIRGADFQCFQQARAVGLAGTFRAFLSSRLQDLYSIVRRADRAAVPIVNLKDELLFPSWEALFSGSEGPLKPGARIFSFDGKDVLRHPTWPQKSVWHGSDPNGRRLTESYCETWRTEAPSATGQASSLLGGRLLGQSAASCHHAYIVLCIENSFMTASK
modifications: Endostatin
binding to resin-immobilized RGD peptide (SDS-PAGE) [1]: bound
co-elution with GRGDS motif peptide (SDS PAGE) [2]: co-eluted
colour change of GST-bound colloids (GST-bound colloids): No color change
colloid colour (binding to FLR peptide) (irrelevant FLR-peptide): remained pink
colour change of RGD-peptide-bound colloids [3]: color change from red to blue
binding to resin-immobilized GST (SDS-PAGE) (resin-immobilized GST): did not bind
colloid colour (binding to GRGDS peptide) (GRGDS peptide): turned blue

B2: angiostatin: human angiostatin, Calbiochem 176700, angiogenesis inhibitor protein (protein)
chain: YLSECKTGNGKNYRGTMSKTKNGITCQKWSSTSPHRPRFSPATHPSEGLEENYCRNPDNDPQGPWCYTTDPEKRYDYCDILECEEECMHCSGENYDGKISKTMSGLECQAWDSQSPHAHGYIPSKFPNKNLKKNYCRNPDRELRPWCFTTDPNKRWELCDIPRCTTPPPSSGPTYQCLKGTGENYRGNVAVTVSGHTCQHWSAQTPHTHNRTPENFPCKNLDENYCRNPDGKRAPWCHTTNSQVRWEYCKIPSCDSSPVSTEQLAPTAPPELTPVVQDCYHGDGQSYRGTSSTTTTGKKCQSWSSMTPHRHQKTPENYPNAGLTMNYCRNPDADKGPWCFTTDPSVRWEYCNLKKCSGTEA
co-elution with GRGDS motif peptide (SDS PAGE) [2]: did not
colour change of GST-bound colloids (GST-bound colloids): No color change
colour change of RGD-peptide-bound colloids [3]: No color change
